Target: VP3 (capping enzyme) (Rotavirus A, UniProt Q1WK45 1-835)
Test: BLI

GGCUUUUA (ssRNA) [biotinylated 8-mer ssRNA]
binding result: binds

From article PMC7159914
